Patent US6759384 (AVENTIS PHARMACEUTICALS, dated 2004)
Starred links: 1 amine or outer side, 2 acyl side, 3 side chain; linkers in the order of their positions; H or OH if unused. Non-standard residues stand in square brackets, D forms with d. No end group written: not given here. *: point of attachment. (pOH)C6H4‑OCH(CH3)CO = N-terminal acyl cap: 4-hydroxyphenyl-O-CH(CH3)-C(=O)- (2-(4-hydroxyphenoxy)propionyl), CC(Oc1ccc(O)cc1)C(=O)*; (pOH)C6H4‑CH2CHOH‑CO = N-terminal acyl cap: 4-hydroxyphenyl-CH2-CH(OH)-C(=O)- (4-hydroxyphenyllactyl); (iBu)Y = N-alpha-isobutyl-tyrosine, CC(C)CN([C@@H](Cc1ccc(O[*:3])cc1)C(=O)[*:2])[*:1]; Orn(N^δ-C3H7N) = ornithine-derived dimethylamidinium (N-delta-C3H7N); Dab(N^γ-C3H7N) = Dab-derived dimethylamidinium (N-gamma-C3H7N); Phe(4-Cl) = N[C@@H](Cc1ccc(Cl)cc1)C(=O)O; Phe(4-F) = N[C@@H](Cc1ccc(F)cc1)C(=O)O; dTic = O=C(O)[C@H]1Cc2ccccc2CN1; Tos = Cc1ccc(S(=O)(=O)*)cc1; Tfa = O=C(C(F)(F)F)*; βAla = NCCC(=O)O; Sar = CNCC(=O)O; For = O=C*

B1: βAla-Y-I-R-G-NH2 (peptide)
peptide: [βAla]YIRG-NH2
modifications: N-terminus assumed
SMILES: CC[C@H](C)[C@H](NC(=O)[C@H](Cc1ccc(O)cc1)NC(=O)CCN)C(=O)N[C@@H](CCCNC(=N)N)C(=O)NCC(N)=O
B2: C-Y-I-R-L-C-NH2 (peptide)
peptide: CYIRLC-NH2
modifications: also: cyclisation unknown (underlining lost)
notes: may be cyclic (disulfide); underlining lost
B3: D-Tic-I-R-L-A-A-F-T-NH2 (peptide)
peptide: [dTic]IRLAAFT-NH2
modifications: N-terminus assumed
SMILES: CC[C@H](C)[C@H](NC(=O)[C@H]1Cc2ccccc2CN1)C(=O)N[C@@H](CCCNC(=N)N)C(=O)N[C@@H](CC(C)C)C(=O)N[C@@H](C)C(=O)N[C@@H](C)C(=O)N[C@@H](Cc1ccccc1)C(=O)N[C@H](C(N)=O)[C@@H](C)O
B4: F(pCl)-I-R-I-Sar-NH2 (peptide)
peptide: [Phe(4-Cl)]IRI[Sar]-NH2
modifications: N-terminus assumed
SMILES: CC[C@H](C)[C@H](NC(=O)[C@@H](N)Cc1ccc(Cl)cc1)C(=O)N[C@@H](CCCNC(=N)N)C(=O)N[C@H](C(=O)N(C)CC(N)=O)[C@@H](C)CC
B5: F(pF)-I-R-L-P-NH2 (peptide)
peptide: [Phe(4-F)]IRLP-NH2
modifications: N-terminus assumed
SMILES: CC[C@H](C)[C@H](NC(=O)[C@@H](N)Cc1ccc(F)cc1)C(=O)N[C@@H](CCCNC(=N)N)C(=O)N[C@@H](CC(C)C)C(=O)N1CCC[C@H]1C(N)=O
notes: also called Phe(pF)-I-R-L-P-NH
B6: (pOH)C6H4-OCH(CH3)CO-I-R-L-P-NH2 (peptide)
peptide: {(pOH)C6H4‑OCH(CH3)CO}-IRLP-NH2
SMILES: CC[C@H](C)[C@H](NC(=O)C(C)Oc1ccc(O)cc1)C(=O)N[C@@H](CCCNC(=N)N)C(=O)N[C@@H](CC(C)C)C(=O)N1CCC[C@H]1C(N)=O
B7: I-H-L-W-y-I-R-L-P-NH2 (peptide)
peptide: IHLW[dY]IRLP-NH2
modifications: N-terminus assumed
SMILES: CC[C@H](C)[C@H](N)C(=O)N[C@@H](Cc1c[nH]cn1)C(=O)N[C@@H](CC(C)C)C(=O)N[C@@H](Cc1c[nH]c2ccccc12)C(=O)N[C@H](Cc1ccc(O)cc1)C(=O)N[C@H](C(=O)N[C@@H](CCCNC(=N)N)C(=O)N[C@@H](CC(C)C)C(=O)N1CCC[C@H]1C(N)=O)[C@@H](C)CC
B8: Tos-G-I-R-V-Sar-NH2 (peptide)
peptide: Tos-GIRV[Sar]-NH2
SMILES: CC[C@H](C)[C@H](NC(=O)CNS(=O)(=O)c1ccc(C)cc1)C(=O)N[C@@H](CCCNC(=N)N)C(=O)N[C@H](C(=O)N(C)CC(N)=O)C(C)C

Each binder was assayed against human factor Xa (Enzyme Research Laboratories, Inc.) (human, UniProt P00742 41-179; P00742 235-488, limits assumed) (assay: chromogenic FXa inhibition).
Sequence of human factor Xa (Enzyme Research Laboratories, Inc.) (P00742 41-179 limits assumed, chain 1 of 2): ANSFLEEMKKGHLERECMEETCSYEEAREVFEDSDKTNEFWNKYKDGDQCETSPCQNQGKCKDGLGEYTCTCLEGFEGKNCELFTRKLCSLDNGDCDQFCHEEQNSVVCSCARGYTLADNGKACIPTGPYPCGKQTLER
Sequence of human factor Xa (Enzyme Research Laboratories, Inc.) (P00742 235-488 limits assumed, chain 2 of 2): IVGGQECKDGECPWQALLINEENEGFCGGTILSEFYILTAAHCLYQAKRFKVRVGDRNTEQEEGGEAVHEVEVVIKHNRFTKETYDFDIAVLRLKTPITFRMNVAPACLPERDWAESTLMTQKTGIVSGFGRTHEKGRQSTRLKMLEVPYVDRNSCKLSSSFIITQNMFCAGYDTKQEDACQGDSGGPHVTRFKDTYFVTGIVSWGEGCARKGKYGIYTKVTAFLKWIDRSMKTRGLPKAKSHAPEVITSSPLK
Description: TBS-P buffer (50 mM Tris-Cl, pH 7.8, 200 mM NaCl, 0.05% (w/v) PEG-8000, 0.02% (w/v) NaN_3) was used for this assay. The IC$50$ was determined by combining in appropriate wells of a Costar half-area microtiter plate 25 μl human factor Xa (Enzyme Research Laboratories, Inc.; South Bend Ind.) in TBS-P; 40 μl 10% (v/v) DMSO in TBS-P (uninhibited control) or various concentrations of a peptide to be tested diluted in 10% (v/v) DMSO in TBS-P; and substrate S-2765 (Nα-benzyloxycarbonyl-D-Arg-Gly-L-Arg-p-nitroanilide; Kabi Pharmacia, Inc.; Franklin Ohio) in TBS-P.
The assays were performed by pre-incubating the peptide inhibitor plus enzyme for 10 min, then the assay was initiated by adding substrate to obtain a final volume of 100 μl. The initial velocity of chromogenic substrate hydrolysis was measured by the change in absorbance at 405 nm using a Bio-tek Instruments kinetic plate reader (Ceres UV900HDi) at 25° C. during the linear portion of the time course (usually 1–5 min after addition of substrate). The concentration of inhibitor that caused a 50% decrease in the rate of substrate hydrolysis was predicted by linear regression after plotting the relative rates of hydrolysis (compared to the uninhibited control) versus the log of the peptide concentration. The enzyme concentration was 0.5 nM and substrate concentration was 140 μM.
For [βAla]YIRG (also: cyclisation unknown (underlining lost), may be cyclic; underlining lost) [βAla-Y-I-R-G], the Ki was < 100 µM.
B1 was tested, and the Ki was < 100 µM.
For {CClF2‑CO}-YIRLP-NH2 [CClF2-CO-Y-I-R-L-P-NH2], the Ki was < 100 µM.
{CF2H‑CO}-YIRLP-NH2 [CF2H-CO-Y-I-R-L-P-NH2] was tested, and the Ki was < 100 µM.
With {CF3‑CF2CO}-YIRLP-NH2 [CF3-CF2CO-Y-I-R-L-P-NH2] the Ki was < 100 µM.
In the case of {CH3‑CHCl‑CO}-YIRLP-NH2 [CH3-CHCl-CO-Y-I-R-L-P-NH2], the Ki is reported as < 100 µM.
In the case of {CH3O‑CO}-YIRLP-NH2 [CH3O-CO-Y-I-R-L-P-NH2], the Ki is reported as < 100 µM.
{CH3‑SO2}-YIRLP-NH2 [CH3-SO2-Y-I-R-L-P-NH2] was tested, and the Ki was < 100 µM.
With {CH3CH2‑O‑CO}-YIRLP-NH2 [CH3CH2-O-CO-Y-I-R-L-P-NH2] the Ki was < 100 µM.
With Cl2CHCO-YIRLP-NH2 [Cl2CHCO-Y-I-R-L-P-NH2] the Ki was < 100 µM.
B2 was tested, and the Ki was < 100 µM.
B3 was tested, and the Ki was < 100 µM.
For XIRLP (N,N-diethyl (Et(Et)) on Y1; C-term NH2) [Et(Et)Y-I-R-L-P-NH2], the Ki was < 100 µM.
With EYIRLK-NH2 (also: cyclisation unknown (underlining lost), may be cyclic; underlining lost) [E-Y-I-R-L-K-NH2] the Ki was < 100 µM.
With EYIRLPK-NH2 (also: cyclisation unknown (underlining lost), may be cyclic; underlining lost) [E-Y-I-R-L-P-K-NH2] the Ki was < 100 µM.
For B4, the Ki was < 100 µM.
With B5 the Ki was < 100 µM.
For FIRLPHYG-NH2 [F-I-R-L-P-H-Y-G-NH2], the Ki was < 100 µM.
In the case of FIRLYVWN-NH2 [F-I-R-L-Y-V-W-N-NH2], the Ki is reported as < 100 µM.
For-[dY]IRLP-NH2 [For-y-I-R-L-P-NH2] was tested, and the Ki was < 100 µM.
In the case of For-YIRLP-NH2 [For-Y-I-R-L-P-NH2], the Ki is reported as < 100 µM.
With GGYIRG-NH2 [G-G-Y-I-R-G-NH2] the Ki was < 100 µM.
With GYIRD-NH2 [G-Y-I-R-D-NH2] the Ki was < 100 µM.
With GYIRF-NH2 [G-Y-I-R-F-NH2] the Ki was < 100 µM.
In the case of GYIRS-NH2 [G-Y-I-R-S-NH2], the Ki is reported as < 100 µM.
With GYIRV-NH2 [G-Y-I-R-V-NH2] the Ki was < 100 µM.
In the case of GYIRW-NH2 [G-Y-I-R-W-NH2], the Ki is reported as < 100 µM.
GYIRY-NH2 [G-Y-I-R-Y-NH2] was tested, and the Ki was < 100 µM.
In the case of GYIRLPAM-NH2 [G-Y-I-R-L-P-A-M-NH2], the Ki is reported as < 100 µM.
GYIRLPPV-NH2 [G-Y-I-R-L-P-P-V-NH2] was tested, and the Ki was < 100 µM.
With GYIRLPQT-NH2 [G-Y-I-R-L-P-Q-T-NH2] the Ki was < 100 µM.
With GYIRLPSQ-NH2 [G-Y-I-R-L-P-S-Q-NH2] the Ki was < 100 µM.
{(pOH)C6H4‑CH2CH2CO}-IRLA-NH2 [(pOH)C6H4-CH2CH2CO-I-R-L-A-NH2] was tested, and the Ki was < 100 µM.
In the case of IRLP (N-term (pOH)C6H4-CH2CH2CO; C-term NH2) [(pOH)C6H4-CH2CH2CO-I-R-L-P-NH2], the Ki is reported as < 100 µM.
For {(pOH)C6H4‑CH2CHOH‑CO}-IRLP-NH2 [(pOH)C6H4-CH2CHOH-CO-I-R-L-P-NH2], the Ki was < 100 µM.
For {(pOH)C6H4‑OCH2CO}-IRLP-NH2 [(pOH)C6H4-OCH2CO-I-R-L-P-NH2], the Ki was < 100 µM.
For B6, the Ki was < 100 µM.
IHLWYIRLP-NH2 [I-H-L-W-Y-I-R-L-P-NH2] was tested, and the Ki was < 100 µM.
With B7 the Ki was < 100 µM.
IQLGYIRLP-NH2 [I-Q-L-G-Y-I-R-L-P-NH2] was tested, and the Ki was < 100 µM.
{4‑MeO‑C6H4‑CO}-IRLA-NH2 [4-MeO-C6H4-CO-I-R-L-A-NH2] was tested, and the Ki was < 100 µM.
For NGYIRLIH-NH2 [N-G-Y-I-R-L-I-H-NH2], the Ki was < 100 µM.
{Ph‑CH═CH‑CO}-IRLA-NH2 [Ph-CH═CH-CO-I-R-L-A-NH2] was tested, and the Ki was < 100 µM.
With {Ph‑CH2CH2CH2‑CO}-IRLA-NH2 [Ph-CH2CH2CH2-CO-I-R-L-A-NH2] the Ki was < 100 µM.
With {Ph‑CH2CH2CO}-IRLA-NH2 [Ph-CH2CH2CO-I-R-L-A-NH2] the Ki was < 100 µM.
With SYIRLP-NH2 [S-Y-I-R-L-P-NH2] the Ki was < 100 µM.
For Tfa-[(iBu)Y]I[Dab(N^γ-C3H7N)]LP-NH2 [Tfa-(iBu)Y-I-Dab(N^γ-C3H7N)-L-P-NH2], the Ki was < 100 µM.
For Tfa-[(iBu)Y]I[Orn(N^δ-C3H7N)]LP-NH2 [Tfa-(iBu)Y-I-Orn(N^δ-C3H7N)-L-P-NH2], the Ki was < 100 µM.
With XIRLP (N-term Tfa; Y1=Y(Me) O-methyl tyrosine; C-term NH2) [Tfa-Y(Me)I-R-L-P-NH2] the Ki was < 100 µM.
In the case of Tfa-[dY]IRLP-NH2 [Tfa-y-I-R-L-P-NH2], the Ki is reported as < 100 µM.
With Tfa-YIRLP-NH2 [Tfa-Y-I-R-L-P-NH2] the Ki was < 100 µM.
With TFGYIRKA-NH2 [T-F-G-Y-I-R-K-A-NH2] the Ki was < 100 µM.
With B8 the Ki was < 100 µM.
